B1: LG-EndoEC, full length extracellular region of human endoglin (residues 22-587), low glycosylation (domain or fragment, UniProt P17813 22-587, looked up)
chain: TSLAETVHCDLQPVGPERGEVTYTTSQVSKGCVAQAPNAILEVHVLFLEFPTGPSQLELTLQASKQNGTWPREVLLVLSVNSSVFLHLQALGIPLHLAYNSSLVTFQEPPGVNTTELPSFPKTQILEWAAERGPITSAAELNDPQSILLRLGQAQGSLSFCMLEASQDMGRTLEWRPRTPALVRGCHLEGVAGHKEAHILRVLPGHSAGPRTVTVKVELSCAPGDLDAVLILQGPPYVSWLIDANHNMQIWTTGEYSFKIFPEKNIRGFKLPDTPQGLLGEARMLNASIVASFVELPLASIVSLHASSCGGRLQTSPAPIQTTPPKDTCSPELLMSLIQTKCADDAMTLVLKKELVAHLKCTITGLTFWDPSCEAEDRGDKFVLRSAYSSCGMQVSASMISNEAVVNILSSSSPQRKKVHCLNMDSLSFQLGLYLSPHFLQASNTIEPGQQSFVQVRVSPSVSEFLLQLDSCHLDLGPEGGTVELIQGRAAKGNCVSLLSPSPEGDPRFSFLLHFYTVPIPKTGTLSCTVALRPKTGSQDQEVHRTVFMRLNIISPDLSGCTSKGL
modifications: short, well defined sugars of the type Man5NAG2 (low glycosylation); putative Asn glycosylation sites Asn88, Asn102, Asn121, Asn134 and Asn307 (Asn306 in Figure 1)
notes: endoglin, human, extracellular region, residues 22-587; Dimeric and monomeric species seen on gels; also called endoglin ectodomain; source: HEK293S GnTI- suspension cells, transfected, secreted, purified (HisTrap, gel filtration); not shown: 6xHis, C-terminal, kept

Columns and labels:
[1] = target: Bone morphogenetic protein 9 (BMP-9) (human) (UniProt Q9UK05); test: SPR; Biacore T100; BMP-9 immobilised on CM5 chip by amine coupling; analyte alone at six concentrations 12.5-400 nM; 25°C; 10 mM HEPES pH 7.4, 150 mM NaCl, 3 mM EDTA, 0.05% P20; 1:1 binding model, global fit; apparent KD; triplicates
[2] = target: Endo362, endoglin orphan domain construct with the linker region (residues 22-361 or 22-362) (human) (UniProt P17813); test: SDS-PAGE under reducing and non-reducing conditions with anti-His6 western blot; 10% SDS gel, 0.5 µg protein; with or without 10 mM DTT (1 h, 65°C); boiled at 95°C for 5 min; disulfide-linked dimer
[3] = target: the molecule itself; test: as above
[4] = target: T1, HG-EndoEC, full length extracellular region of human endoglin (residues 22-587), high glycosylation (human, UniProt P17813 22-587, mature, branched sugars (high glycosylation); putative Asn glycosylation sites Asn88, Asn102, Asn121, Asn134 and Asn307 (Asn306 in Figure 1)); test: SPR; Biacore T100; endoglin coinjected with a constant saturating concentration of HG-ALK1EC over immobilised BMP-9; 25°C; 10 mM HEPES pH 7.4, 150 mM NaCl, 3 mM EDTA, 0.05% P20; 1:1 binding model; conditions: both partners purified
T1 construct: endoglin, human, extracellular region, residues 22-587; EndoEC dimerized to some extent through a disulfide bond; also called endoglin ectodomain; source: HEK293 FreeStyle (HEK293F), transfected, secreted, purified (HisTrap, gel filtration)
T1 sequence (looked up): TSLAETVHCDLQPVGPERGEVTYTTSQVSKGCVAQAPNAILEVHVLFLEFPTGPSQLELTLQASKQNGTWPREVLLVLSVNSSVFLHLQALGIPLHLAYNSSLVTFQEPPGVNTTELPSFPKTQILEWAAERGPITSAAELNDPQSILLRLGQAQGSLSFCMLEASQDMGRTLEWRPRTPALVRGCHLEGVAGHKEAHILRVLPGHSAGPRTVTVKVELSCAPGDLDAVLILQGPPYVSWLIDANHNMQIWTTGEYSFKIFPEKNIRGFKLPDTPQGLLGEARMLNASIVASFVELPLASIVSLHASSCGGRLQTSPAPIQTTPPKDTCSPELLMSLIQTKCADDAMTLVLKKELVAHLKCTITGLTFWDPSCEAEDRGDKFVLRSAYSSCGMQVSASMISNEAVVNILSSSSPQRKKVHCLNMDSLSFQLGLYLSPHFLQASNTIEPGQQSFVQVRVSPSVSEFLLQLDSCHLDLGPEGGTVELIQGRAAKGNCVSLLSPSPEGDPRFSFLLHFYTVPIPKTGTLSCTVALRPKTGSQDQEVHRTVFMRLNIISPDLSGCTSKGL

[5] = target: B1; test: as above; conditions: both partners purified
[6] = target: T2, Endo338, endoglin orphan domain construct (residues 22-337) (human, UniProt P17813 22-337, Man5NAG2 glycans (5 modelled at their attachment sites)); test: SPR; Biacore T100; BMP-9 immobilised on CM5 chip by amine coupling; analyte alone at six concentrations 12.5-400 nM; 25°C; 10 mM HEPES pH 7.4, 150 mM NaCl, 3 mM EDTA, 0.05% P20; 1:1 binding model, global fit; apparent KD; triplicates; conditions: both partners purified
T2 construct: also called Endoglin338; OD; source: HEK293S GnTI- suspension cells, transfected, secreted, purified (HisTrap, gel filtration); not shown: 6xHis, C-terminal, kept
T2 sequence (looked up): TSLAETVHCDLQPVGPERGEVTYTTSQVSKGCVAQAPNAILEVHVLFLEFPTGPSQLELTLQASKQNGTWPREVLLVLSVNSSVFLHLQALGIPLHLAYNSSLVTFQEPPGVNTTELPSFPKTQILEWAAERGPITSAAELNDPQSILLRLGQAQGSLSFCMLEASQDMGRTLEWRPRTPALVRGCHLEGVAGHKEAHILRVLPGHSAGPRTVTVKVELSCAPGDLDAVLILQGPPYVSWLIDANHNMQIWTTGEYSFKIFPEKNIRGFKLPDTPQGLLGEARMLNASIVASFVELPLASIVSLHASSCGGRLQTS

[7] = target: T1, HG-EndoEC, full length extracellular …; test: as above; conditions: both partners purified
[8] = target: B1; test: as above; conditions: both partners purified

## Endo362, endoglin orphan domain construct with the linker region (residues 22-361 or 22-362) (from UniProt P17813 22-361) (domain or fragment)
[1]
  Kd: 8.96 nM
  koff: 0.00108 s⁻¹
  kon: 120000 M⁻¹ s⁻¹
[2]
  stoichiometry N: 2

## B1
[3]
  stoichiometry N: 2

B2: Bone morphogenetic protein 9 (BMP-9) (ligand, human, UniProt Q9UK05 320-429, looked up)
chain: SAGAGSHCQKTSLRVNFEDIGWDSWIIAPKEYEAYECKGGCFFPLADDVTPTKHAIVQTLVHLKFPTKVGKACCVPTKLSPISVLYKDDMGVPTLKYHYEGMSVAECGCR
notes: BMP-9, human, carrier-free protein from R&D Systems; Immobilised on a CM5 chip by amine coupling; also called Bone Morphogenetic Protein (BMP)-9; source: bought: R&D Systems (carrier free)
[4]
  Kd: 14.7 nM
  koff: 0.00153 s⁻¹
  kon: 274000 M⁻¹ s⁻¹
[5]
  Kd: 3.27 nM
  koff: 0.000925 s⁻¹
  kon: 283000 M⁻¹ s⁻¹
[6]
  Kd: 276 nM
  koff: 0.254 s⁻¹
  kon: 914000 M⁻¹ s⁻¹
[7]
  Kd: 9.94 nM
  koff: 0.00207 s⁻¹
  kon: 208000 M⁻¹ s⁻¹
[8]
  Kd: 2.01 nM
  koff: 0.000891 s⁻¹
  kon: 442000 M⁻¹ s⁻¹

Source: paper PMC3275592, “Structural and Functional Insights into Endoglin Ligand Recognition and Binding” (PLoS ONE, 2012)
